Publication PMC9646512

Tests used:
Details in all cases: all L-DNA (mirror image); ITC: 20 mM HEPES-NaOH, 150 mM NaCl, 5 mM KCl, 2 mM MgCl2, 1 mM CaCl2, pH 7.4, 25 C; EMSA: same plus 0.05% Tween 20 and 10% glycerol, room temperature 30 min …
[1] = molecular target: T1, native human alpha-thrombin (Homo sapiens) (UniProt P00734+P00734); experiment: ITC
[2] = molecular target: T1, native human alpha-thrombin (Homo sapiens); experiment: thrombin activity inhibition
[3] = molecular target: native bovine alpha-thrombin (Bos taurus (bovine)) (UniProt P00735+P00735); experiment: ITC
[4] = molecular target: T1, native human alpha-thrombin (Homo sapiens); experiment: EMSA

| Sequence | Kd [1] | IC50 [2] | Kd [3] | Kd [4] |
| --- | --- | --- | --- | --- |
| CGGATCCAGTTACGGATGAACTTGTTGAAACCCAACGGGAGCCTCGTTCATTCAGTAAGCTTCGGTGG [L-13 aptamer] | 22 nM | 27 nM | – | – |
| CGGATCCAGTTACGGATGAACTTGTTGAAACCCAACGGGAGAATCGTTCATTCAGTAAGCTTCGG [L-9-2 aptamer] | 168 nM | 317 nM | – | – |
| GATGAACTTGTTGAAACCCAACGGGAGCCTCGTTCATT [L-13t aptamer] | 34 nM | 46 nM | 340 nM | – |
| ACGGAACGCGTTTCAAGACTACCGTGTTTGTTCCGT [Cy5-L-9-1t aptamer] | – | – | – | 21 nM |
| CGGATCCAGTTACGGAACGCGTTTCAAGACTACCGTGTTTGTTCCGTTCATTCAGTAAGCTTCGG [L-9-1 aptamer] | 29 nM | – | – | – |
| GATGAACTTGTTGAAACCCAACGGGAGAATCGTTCATT [L-9-2t aptamer] | 251 nM | 479 nM | 426 nM | – |
| GGAACGCGTTTCAAGACTACCGTGTTTGTTCC [L-9-1t' aptamer] | 111 nM | – | – | – |
| ACGGAACGCGTTTCAAGACTACCGTGTTTGTTCCGT [L-9-1t aptamer] | 39 nM | – | 1030 nM | – |
| GATGAACTTGTTGAAACCCAACGGGAGAATCGTTCATT [Cy5-L-9-2t aptamer] | – | – | – | 355 nM |
| GATGAACTTGTTGAAACCCAACGGGAGCCTCGTTCATT [Cy5-L-13t aptamer] | – | – | – | 28 nM |
